Laboratory results: the RNAGym collection of RNA variant scans (doi:10.1073/pnas.2313332121)

B1: TPR t1 (parent)
chain: GACCAAUCUGCCCUCAGAGCUCGAGAACAUCUUCGGAUGCAGAGGAGGCAGGCUUCGGUGGCGCGAUAGCGCCAACGUCCUCAACCUCCAAUGCAUCCCACCACAUGAUGAUGCCUGAAGAGCCUUGGUUUUUUG

Variants of: B1
Experiment: polymerase ribozyme fitness, log enrichment relative to wild type (log ratio); higher = more active; in vitro selection for triplet polymerase activity
How it was run: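 The heterodimeric triplet polymerase ribozyme's subunits were each mutagenized into PCR-built libraries and transcribed. Every library was selected once, in triplicate, by annealing with a biotinylated primer, the partner subunit and triplets, incubating frozen at −7 °C, gel-excising extended constructs, capturing on streptavidin beads and running RT-PCR. Input and output libraries were Illumina-sequenced, with genotypes kept only at ≥10 input reads and ≥1 read per output. Fitness, from inverse-variance-weighted replicate averages, is the base-2 logarithm of genotype enrichment over wild-type enrichment.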

| Variant | polymerase ribozyme fitness (log ratio) |
| --- | --- |
| GACCAAUCUGCCCUCAGAGCUCGAGAACAUCUUCGGAUGCAGAGGAGGCAGGCUUCCGUGGCGCGAUAGCGCCAACGUCCUCAACCUCCAAUGAAUUCCACCACAUGAUGAUGCCUGAAGUUCCUUGGUUUUUUG [G57C C94A C97U A121U G122U] | -1.21 |
| GACCAAUCUGCCCUCAGAGCUCGAGAACAUCUUCGGAUGCAGAGGAGGCAGGCUUCCGUGGCGCGAUAGCGCCAACGUCCUCAACCUCUAAUGCAUCCCACCACAUGAUGAUGCCUGAACAGCCUUGGUUUUUUG [G57C C89U G120C] | -1.28 |
| GACCAAUCUGCCCUCAGAGCUCGAGAACAUCUUCGGAUGCAGAGGAGGCAGGCUUCCGUGGCGCGAUAGCGCCAACGUCCUCAACCUCCAAUUCAUCCCACCACAUGAUGUUCAUUGAAGAGCCAUGGUUUUUUG [G57C G93U A111U G113C C114A C115U U125A] | -7.73 |
| GACCAAUCUGCCCUCAGAGCUCGAGAACAUCUUCGGAUGCAGAGGAGGCAGGCUUCCGUGGCGCGAUAACGCCAACGUCCUCAACCUCCAAUGCAUCCCACCACAUGAUGAUGCCUGAAGAGCCUUGGUUUUUUG [G57C G69A] | -3 |
| GACCAAUCUGCCCUCAGAGCUCGAGAACAUCUUCGGAUGCAGAGGAGGCAGGCUUCAGUGGCGCGAUAGCGCCAACGUCCUCAACCUCCAAUGCAUCCCACCACAUGAUGAUGCCUGAAGAGCCUUGGUAUUUUG [G57A U130A] | -1.13 |
| GACCAAUCUGCCCUCAGAGCUCGAGAACAUCUUCGGAUGCAGAGGAGGCAGGCUUCAGGGGCGCGAUAGCGCCAACGUCCUCAACCUCCAAUGCAUCCCACCACAUGAUGAUGCCUGAAGAGCCUUGGUUUUUUG [G57A U59G] | -0.399 |
| GACCAAUCUGCCCUCAGAGCUCGAGAACAUCUUCGGAUGCAGAGGAGGCAGGCUUCAGUGGCGCGAUAGCGCCAACGUCCUCAACCUCCAAUGCAUCCCACCACAUGAUGAUGCCGGAAGAGCCUUGGUUUUUUG [G57A U116G] | -3.51 |
| GACCAAUCUGCCCUCAGAGCUCGAGAACAUCUUCGGAUGCAGAGGAGGCAGGCUUCCGUGGCGCGAUAGCGCCAACGUCCUCAACCUCCAAUGCAUCCCACCACAUGAUGAGGCCUGAAGAGCCUUGGUUUUUUG [G57C U112G] | 0.543 |
| GACCAAUCUGCCCUCAGAGCUCGAGAACAUCUUCGGAUGCAGAGGAGGCAGGCUUCAGUGGCGCGAUAGCGCCAACGUCCUCAACCUCCAAUGCAUCCCACCACAUGAUGAUCCCUGAAGAGCCUUGGUUUUAUG [G57A G113C U133A] | -3.86 |
| GACCAAUCUGCCCUCAGAGCUCGAGAACAUCUUCGGAUGCAGAGGAGGCAGGCUUCAGUGGCGCGAUAGCUCCAACGUCCUCAACCUCUAAUGCAUCCCACCACAUGAUGAUGCCUGAAGAGCCUUGGUUUUUUG [G57A G71U C89U] | -1.34 |
| GACCAAUCUGCCCUCAGAGCUCGAGAACAUCUUCGGAUGCAGAGGAGGCAGGCUUCCGUGGCGCGAUAGCGCCAACGUCCUCAACCUCCAAUGCAUCCCACCACAUGAUGAUGCCUGAAGCGCCUUGGUUUUUUG [G57C A121C] | 1.63 |
| GACCAAUCUGCCCUCAGAGCUCGAGAACAUCUUCGGAUGCAGAGGAGGCAGGCUUCCGUUGCGCGAUAGCGCCAACGUCCUCAACCUACAAUGCAUCCCACCACAAGAUGAUGCCUGAAGAGCCUUGGUUUUUUG [G57C G60U C88A U106A] | -0.528 |
| GACCAAUCUGCCCUCAGAGCUCGAGAACAUCUUCGGAUGCAGAGGAGGCAGGCUUCCGUGGCGCGAUAGCGCCAACGUCCUCCACCUCCAAUGCAUCCCACCACAUGAUGGUGCCUGAAGAACCUUAGUUUUUUG [G57C A83C A111G G122A G127A] | -3.51 |
| GACCAAUCUGCCCUCAGAGCUCGAGAACAUCUUCGGAUGCAGAGGAGGCAGGCUUCCGUGGCGCGAUAGCGCCAACGCCCUCAACCUCCAAUGCAUCCCACCACAUGAUGAUGCCUGAAGAGCCUUGGUUUUUUG [G57C U78C] | 0.0872 |
| GACCAAUCUGCCCUCAGAGCUCGAGAACAUCUUCGGAUGCAGAGGAGGCAGGCUUCCGUGGCGCGAUAGCGCCAACGCCCUCAACCCCCAAUGCAUCCCACAACAUGAUGAUGCCUGAAGAGCAUUGGUUUUUUG [G57C U78C U87C C102A C124A] | -0.477 |
| GACCAAUCUGCCCUCAGAGCUCGAGAACAUCUUCGGAUGCAGAGGAGGCAGGCUUCAGUGGCGCGAUAGCGCCAACGUCCUCAACCUCCAAUUCAUCCCACCACAUGAUGAUGCCUGAAGAGCCUUGGUUUUUUG [G57A G93U] | -1.69 |
| GACCAAUCUGCCCUCAGAGCUCGAGAACAUCUUCGGAUGCAGAGGAGGCAGGCUUCAGUGGCUCGAUAGCGCCAACGCCCUCAACCUCCAAUGCCUCCCACCACAUGAUGAUGCAUGAAGAGCCUUGGUUUUUUG [G57A G63U U78C A95C C115A] | -2.54 |
| GACCAAUCUGCCCUCAGAGCUCGAGAACAUCUUCGGAUGCAGAGGAGGCAGGCUUCCGUGGCGCGAUAGCGCCAACGUCCUUAACCUCCAAUGCAUCCCACCACAUGAUGAUGCCUGAAGAGCCUUGGUUUUUUG [G57C C82U] | 0.151 |
| GACCAAUCUGCCCUCAGAGCUCGAGAACAUCUUCGGAUGCAGAGGAGGCAGGCUUCCGUGGCGCGAUAGCGCCAACGUCCUCAACCUCCAAUGCAUCCCACCACAAGAUGAUGCCUGAAGAGCCUUGGUUUUUUG [G57C U106A] | -0.376 |
| GACCAAUCUGCCCUCAGAGCUCGAGAACAUCUUCGGAUGCAGAGGAGGCAGGCUUCCGUGGCGCGAUAGCGCCAACGUCCUCAACCUCCAAUGCAUCCCACCAUAUGAUGAUGCCUGAAGAGCCUUGGUUUUUUG [G57C C104U] | 0.227 |
| GACCAAUCUGCCCUCAGAGCUCGAGAACAUCUUCGGAUGCAGAGGAGGCAGGCUUCCGUGGCGCGAUAGCGCCAACGUCCUCAACCUCCAAUACAUCCCACCACAUGAUGAUGCCUGAAGAGCCUUGGUUUUUUG [G57C G93A] | -0.552 |

| Variant | polymerase ribozyme fitness (log ratio) |
| --- | --- |
| GACCAAUCUGCCCUCAGAGCUCGAGAACAUCUUCGGAUGCAGAGGAGGCAGGCUUCAGUGGCGCGAUAGCGCCAACGUCCCCAACCUCCAAUCCAUCCCACCACAUGAUGAUGCCUGAAAAGCCUUGGUUUUUUG [G57A U81C G93C G120A] | -1.39 |
| GACCAAUCUGCCCUCAGAGCUCGAGAACAUCUUCGGAUGCAGAGGAGGCAGGCUUCCGUGGCGCGAUAGCGCCAACGUCCUCAACCUCAAAUGCGUCCCACCACAUGAUGUUGCCUGAAGUGCCUUGGUUUUUUG [G57C C89A A95G A111U A121U] | -2.97 |
| GACCAAUCUGCCCUCAGAGCUCGAGAACAUCUUCGGAUGCAGAGGAGGCAGGCUUCAGUGGCGCGAUAGCGCCAACGUCCUCAACCUCCAAUCCAUCCCACCACAUGAUGAUGCCUGAAGAGCCUUGGUGUUUUG [G57A G93C U130G] | -3.23 |
| GACCAAUCUGCCCUCAGAGCUCGAGAACAUCUUCGGAUGCAGAGGAGGCAGGCUUCCGUGGCGCGAUAGCGUCAACGUCCUCAACCUCCAAUGCAUCCCACCACAUGAUGAUGCCUGAAGAGCCUUGGAUUUUUG [G57C C72U U129A] | -1.29 |
| GACCAAUCUGCCCUCAGAGCUCGAGAACAUCUUCGGAUGCAGAGGAGGCAGGCUUCCGUGACGCGAUAGCGCCAACGUCCUCAACCUCCAAUGCAUCCCACCACAUGAUUAUGCAUGAAGAGCCUUGGUUUUUUG [G57C G61A G110U C115A] | -2.7 |
| GACCAAUCUGCCCUCAGAGCUCGAGAACAUCUUCGGAUGCAGAGGAGGCAGGCUUCAGUGGCGCGAUAUCGCCAACGUCCUCAACCUCCAAUGCAUACCACCACAUGAUGAUGCCUGAAGAGCCUUGGUUUCUUG [G57A G69U C97A U132C] | -3.61 |
| GACCAAUCUGCCCUCAGAGCUCGAGAACAUCUUCGGAUGCAGAGGAGGCAGGCUUCAGUGGCGCGAUAGCGCCAACGUCCUCAACCUCCAAUGCAUCCCACCACAUGAUGAUGCCUGAAGAGCCUUUGUUUUUUG [G57A G127U] | -1.83 |
| GACCAAUCUGCCCUCAGAGCUCGAGAACAUCUUCGGAUGCAGAGGAGGCAGGCUUCCGUGGCGAGAUAGCGCCAACGUCCUCAACCUCCAAUGCAUCCCACCACAUGAUGAUGCCUGAAGAGCUUUGGUUUUUUG [G57C C64A C124U] | -6.08 |
| GACCAAUCUGCCCUCAGAGCUCGAGAACAUCUUCGGAUGCAGAGGAGGCAGGCUUCAGUGGCGCGAUAGCUCCAACGUCCUCAACCUCCAAUGCAUCCCACCACAUGAUGAUGCCUGAAGAGCAUUGGUUUUUUA [G57A G71U C124A G135A] | 0.736 |
| GACCAAUCUGCCCUCAGAGCUCGAGAACAUCUUCGGAUGCAGAGGAGGCAGGCUUCCGUGGCGCGAUAGCGCCAACGUCCUCAACCUCCAAUGCAUCCCACCACAUCAUGAUGCCUGAAGAGCCUUGGUUUUUUG [G57C G107C] | -6.59 |
| GACCAAUCUGCCCUCAGAGCUCGAGAACAUCUUCGGAUGCAGAGGAGGCAGGCUUCCGUGCCGCGAUAGCGCCAACGUCCUCAACCUGCAAUGCAUCCCACCACAUGAUGAUUCCCGAAGUGCCUUGGUUUUUUG [G57C G61C C88G G113U U116C A121U] | -6.29 |
| GACCAAUCUGCCCUCAGAGCUCGAGAACAUCUUCGGAUGCAGAGGAGGCAGGCUUCCGUGACGCGAUAGCGCCAACGUCCUCAACCUCCAAUGCAUCCCACCACAUGAUGAUGCCUGAAGAGCCUUGGUUUUUUG [G57C G61A] | -1.82 |
| GACCAAUCUGCCCUCAGAGCUCGAGAACAUCUUCGGAUGCAGAGGAGGCAGGCUUCAGUGGCGCGAUAGCUCCAACGUCCUCAACCUCCAAUGCAUCCCACCACAUGAUGAUGCCUGAAGAGCCUUGGUUUUUUG [G57A G71U] | -0.925 |
| GACCAAUCUGCCCUCAGAGCUCGAGAACAUCUUCGGAUGCAGAGGAGGCAGGCUUCCGUGGCGCGAUAGCGCCAACGUCCUCAACCUCCAAGGCAUCCCACCACAUGAUGAUGCCUAAAGAGCCUUGGUUUUUUG [G57C U92G G117A] | -3.55 |
| GACCAAUCUGCCCUCAGAGCUCGAGAACAUCUUCGGAUGCAGAGGAGGCAGGCUUCCAUGGCGCGAUAGCGCCAACGUCCUCUACAUCCAAUGCAUCCCACCACAUGAUGAUGCCUUAAGAGUCUUGGUUUUUUG [G57C G58A A83U C86A G117U C123U] | -6.95 |
| GACCAAUCUGCCCUCAGAGCUCGAGAACAUCUUCGGAUGCAGAGGAGGCAGGCUUCAGUGGCGCGAUAGCGCCAACGUCCUCAACCUCCAAUGCAUCCCACCACAUAAUGAUGCCUGAAGAGCCUUGGUUUUUUG [G57A G107A] | -6.98 |
| GACCAAUCUGCCCUCAGAGCUCGAGAACAUCUUCGGAUGCAGAGGAGGCAGGCUUCCGUGGCGCGAUAGCGCCAACGUCCUCAACCUCCAAUGCAUCCCACCAUAUGAUCAUGCCUGAAGAGCCUUGGUUAUUUG [G57C C104U G110C U131A] | -4.01 |
| GACCAAUCUGCCCUCAGAGCUCGAGAACAUCUUCGGAUGCAGAGGAGGCAGGCUUCCGUGGCGCGAUAGCGCCAACGUCCUCAACCUCGGAUGCAUCCCACCACAUGAUGAUGCCUGAAGAGCCUUGGUUUUUUG [G57C C89G A90G] | -1.31 |
| GACCAAUCUGCCCUCAGAGCUCGAGAACAUCUUCGGAUGCAGAGGAGGCAGGCUUCCGUAGCGCGAUAGCGCCAACGUCCUCAACCUCCAAUGCAUCCCACCACAUGAUGAUGCCUUAAGAGCCUUGGUUUUUUG [G57C G60A G117U] | -2.47 |
| GACCAAUCUGCCCUCAGAGCUCGAGAACAUCUUCGGAUGCAGAGGAGGCAGGCUUCCGUGGCGCGAUAGCGCUAACGUCCUCAACCUCCAAUGCAUCCCAACACAUGAUGCUGCCUGAAGAGCCUUGGUUUUUUG [G57C C73U C101A A111C] | -0.202 |
| GACCAAUCUGCCCUCAGAGCUCGAGAACAUCUUCGGAUGCAGAGGAGGCAGGCUUCCGUGGCGCGAUAGCGCCAACGGCCUCAACCUCCAAUGCAUCCCACCACAUGAUGAAGCCUGUAGAGCCUUGGUUUUUUG [G57C U78G U112A A118U] | 1.26 |
